Values after ≈ are worked out from the molar mass of the structure shown. Where two headings read alike, the source gives them in different places.
Tests used:
Gardnerella leopoldii = test: MIC / MBC99.5 assessment in suspension; type: cell-based
Protocol: (§1) The minimum inhibitory concentration (MIC), which is a standard measure of the activity of antimicrobials, was determined according to the Clinical and Laboratory Standards Institute protocol (2018) Methods for Antimicrobial Susceptibility Testing of Anaerobic Bacteria (Carpenter et al., 2018). […] Controls for growth in the absence of antimicrobials were also included. OD600 was recorded by a microplate reader (Tecan, Grodig, Austria) after incubation at 37° C. for 48 h or, for some fast-growing strains, after incubation for 24 h. Absence of growth was defined as OD600≤0.14. […] MIC readout and MBC99.5 spotting were performed after 72 h incubation for H2B10B11.
(§2) However, topical intravaginal antibiotic administration is recommended for BV therapy, which allows to reach concentrations of active ingredients in the mg/mL range. […] Abbreviations: n.d., not determined; SJHB, St. Jan Hospital Bruges.
(§3) MIC90 is defined as the MIC value for 90% of the tested strains. For PM-477 (H2B10), the resistance breakpoint is not defined, therefore a “% resistant” is not defined (n.d.).

Gardnerella piotii = test: MIC / MBC99.5 assessment in suspension; type: cell-based
Protocol: as §1, §2, §3

G. swidsinskii biofilm = type: cell-based, Gardnerella swidsinskii
Protocol: (§4) Gardnerella spp. (see figures for strain specification) was resuspended in brain heart infusion broth supplemented with 2% (w/v) gelatin, 0.5% yeast extract (w/v), 0.1% starch (w/v) and 0.25% glucose (w/v) (sBHIG). Passaged strains were resuspended in unbuffered NYCB supplemented with 1% glucose (w/v) (sNYCB). The OD600 was set to 0.1 (approx. 10^7-10^8 CFU/mL) and the cell suspension was diluted 1:10 in growth medium as input for biofilm formation. A total of 200 μL of the respective bacterial suspensions was added to 96-well flat bottom plates (tissue-culture treated, Sigma-Aldrich). The biofilms were grown under anaerobic conditions at 37° C. for 40 to 72 hours, depending on the isolate. Subsequently, the supernatant was removed, and the biofilm was treated with antimicrobials dissolved in sBHIG (at pH 5 for treatment with PM-477 (H2B10), and unbuffered for treatment with antibiotics) in 100 μL and incubated anaerobically at 37° C. for another 24 hours. After the treatment, the biofilms were washed twice with 200 μL 1x PBS and dissolved by vigorous pipetting (40x up and down). Serial dilutions of the dissolved cells were spotted on chocolate agar plates. The plates were incubated anaerobically for two to three days and the minimum biofilm eradication concentration (MBEC) of the endolysin or the antibiotics in use were calculated.
(§5) Gardnerella dominated biofilms covering the human vaginal epithelial cells are now generally considered as a hallmark of BV. Thus, it was tested how effective antibiotics and PM-477 (H2B10) are in penetrating and killing in vitro pre-formed, 40-72 h old biofilms of various Gardnerella strains.

G. piotii biofilm = type: cell-based, Gardnerella piotii
Protocol: as §4, §5

[1] = tested on: passaged G. vaginalis biofilm; test: MBEC on biofilms of passaged strains; type: cell-based, Gardnerella vaginalis
Protocol: as §4
(§6) All MICs determined after 48 h of incubation.

[2] = tested on: passaged G. swidsinskii biofilm; test: MBEC on biofilms of passaged strains; type: cell-based, Gardnerella swidsinskii
Protocol: as §4, §6

[3] = tested on: passaged G. piotii biofilm; test: MBEC on biofilms of passaged strains; type: cell-based, Gardnerella piotii; settings: G. piotii (UGent 18.01T) passaged with MDZ-OH
Protocol: as §4, §6

[4] = tested on: G. vaginalis (ATCC 14018); test: Bactericidal effect in suspension by quantitative plating, wild type and MDZ-passaged; type: cell-based, Gardnerella vaginalis; settings: for reduction of a suspension of 108 CFU/mL: 10 μg/mL, 1 h
Protocol: Bacterial suspensions (OD600 of 0.1, corresponding to approximately 10^7-10^8 CFU/mL) were prepared by scraping the cells from confluently grown agar plates and diluting them into NYCB+10% HS, pH 5.5. Reactions were performed in triplicate by mixing ten μl of endolysin (200 μg/mL) with 90 μL bacterial suspension in the wells of a 96-well plate. Ten UL MES buffer without the endolysin was used as a control. […] Tenfold dilution series (10^−1 to 10^−6) of the cell reaction mixtures were prepared in NYCB+10% HS and 2 μL of each dilution were spotted onto Choc agar plates. After anaerobic incubation at 37° C. for 48 h, colonies were counted, CFU/mL calculated, and the log10 reduction compared to MES buffer treated control was determined.
as §6

[5] = tested on: Gardnerella strains from vaginal swabs of BV patients; test: MIC and MBC99.5 on 18 in-house BV patient isolates; type: cell-based, Gardnerella spp.
Protocol: as §1

[6] = tested on: Gardnerella strains grown as biofilm; test: MBEC on pre-formed biofilms, summary over ancestor strains; type: cell-based, Gardnerella spp.; settings: 40-72 h old pre-formed biofilms
Protocol: as §4, with “calculated. […]” for “calculated.”

[7] = ancestor G. swidsinskii GS 9838-1, pre-formed biofilm
[8] = ancestor G. swidsinskii UGent BV 7.1, pre-formed biofilm
[9] = ancestor G. piotii UGent 18.01, pre-formed biofilm
[10] = ancestor G. piotii UGent 21.28, pre-formed biofilm
[11] = G. vaginalis (ATCC 14018T) passaged with MDZ
[12] = G. vaginalis (UGent 09.07) passaged 8 times with MDZ-OH
[13] = G. vaginalis (UGent BV50) passaged with MDZ-OH
[14] = G. swidsinskii (GS 9838-1T) passaged with MDZ-OH
[15] = G. swidsinskii (UGent BV 7.1) passaged with MDZ-OH
[16] = Gardnerella leopoldii, N=3 strains
[17] = Gardnerella piotii, N=7 strains

Cc1ncc([N+](=O)[O-])n1CCO [MDZ, metronidazole]
MIC (Gardnerella leopoldii; Gardnerella leopoldii, G. leopoldii (BV217) UGent BV217.1, suspension, read-out: MIC): 256 µg/mL (≈ 1500 µM) | N resistant (%) (Gardnerella leopoldii; Gardnerella leopoldii, N=3, resistance ≥32 μg/mL MDZ): 100% | N resistant (Gardnerella leopoldii; Gardnerella leopoldii, N=3, resistance ≥32 μg/mL MDZ, ≥8 μg/mL CLI): 3 | MIC90 (Gardnerella leopoldii; Gardnerella leopoldii, N=3 strains, read-out: MIC90): > 256 µg/mL | MBC (Gardnerella leopoldii; Gardnerella leopoldii, read-out: MBC99.5): 512 µg/mL (≈ 2990 µM) | MIC (Gardnerella piotii; Gardnerella piotii, 48 h, read-out: MIC before passaging): 32 µg/mL (≈ 187 µM) | MBC (Gardnerella piotii; Gardnerella piotii, G. piotii (BV049) UGent BV049.1): 32 µg/mL (≈ 187 µM) | MBC (Gardnerella piotii; Gardnerella piotii, G. piotii (BV154) UGent BV154.1): 32 µg/mL (≈ 187 µM) | MBC (Gardnerella piotii; Gardnerella piotii, G. piotii (FB041) UGent FB041): 64 µg/mL (≈ 374 µM) | MIC (Gardnerella piotii; Gardnerella piotii, G. piotii (FB041) UGent FB041, suspension, read-out: MIC): 32 µg/mL (≈ 187 µM) | MBC (Gardnerella piotii; Gardnerella piotii, G. piotii (Gp17) UGent 18.01(T)): 64 µg/mL (≈ 374 µM) | MIC (Gardnerella piotii; Gardnerella piotii, G. piotii (Gp17) UGent 18.01(T), suspension, read-out: MIC): 32 µg/mL (≈ 187 µM) | MIC (Gardnerella piotii; Gardnerella piotii, G. piotii (Gp22) UGent 21.28, suspension, read-out: MIC): 64 µg/mL (≈ 374 µM) | MBC (Gardnerella piotii; Gardnerella piotii, G. piotii (P80275) UGent P80275): 64 µg/mL (≈ 374 µM) | MIC (Gardnerella piotii; Gardnerella piotii, G. piotii (P80275) UGent P80275, suspension, read-out: MIC): 16 µg/mL (≈ 93.5 µM) | N resistant (%) (Gardnerella piotii; Gardnerella piotii, N=7, resistance ≥32 μg/mL MDZ): 57% | N resistant (Gardnerella piotii; Gardnerella piotii, N=7, resistance ≥32 μg/mL MDZ, ≥8 μg/mL CLI): 4 | MBC (Gardnerella piotii; Gardnerella piotii, G. piotii (BV140) UGent BV140.2): > 512 µg/mL | MBEC (G. swidsinskii biofilm; [7]): 32 µg/mL | MBEC (G. swidsinskii biofilm; [8]): 32 µg/mL | MBEC (G. piotii biofilm; [9]): 8 µg/mL | MBEC (G. piotii biofilm; [10]): 8 to 32 µg/mL | MBEC passaged [1, 11]: >2048 µg/mL | MBEC passaged [1, 12]: >2048 µg/mL | MBEC passaged [1, 13]: >2048 µg/mL | MBEC passaged [2, 14]: >2048 µg/mL | MBEC passaged [2, 15]: >2048 µg/mL | MBEC passaged [3]: >2048 µg/mL | reduction compared to the buffer treated control ([4]; MDZ-passaged G. vaginalis (ATCC 14018), 2 mg/ml, 24 h): 2 log | loss in viability ([4]; MDZ-passaged G. vaginalis (ATCC 14018), up to 2 mg/ml, 1 and 5 hours): without any loss in viability | MIC ([5]; Gardnerella, 72 h, 18 in-house BV patient isolates, read-out: median MIC): 64 µg/mL (≈ 374 µM) | MBC ([5]; Gardnerella, 18 in-house BV patient isolates, read-out: median MBC99.5): 1540 µg/mL (≈ 8970 µM) | number of resistant isolates (MIC>32 μg/mL) ([5]; panel of 18 isolates from vaginal swabs of BV patients): 10

B1: PM-477: genetically engineered recombinant Gardnerella-specific endolysin, amino acid sequence SEQ ID NO: 1, His-tag cleaved off (protein)
chain: SKRGIDVSEWQGDIDFNAVKASGVEFVIIRAGYGIGCKDKWFEQNYRKAKTCGLDVGAYWYSYANSGFEAAEEAQSCVNMLSGKSFEYPVYFDLEEKSQLNRGRAFCDSLITGFCNKLESCGYYAGFYTSLSTANNLVSAHVRNRYALWIAQWNTHCSYQGSYGLWQYSSSGSVPGVAGRVDMDYAYVDYPSIIKNVGLNGYKNGGSYTAPQISSIDEVAREVINGDWGNGNERKQRLTSAGYDYASVQNKVNELLGVKAYRKSVDELAREVIRGTWGNGSTRKQRLTQAGYDYNAVQKRVNELL
modifications: His-tag cleaved off; H2B10
MBC99.5 (Gardnerella leopoldii; G. leopoldii (BV13) UGent BV13.2): 2 µg/mL | MIC (Gardnerella leopoldii; G. leopoldii (BV13) UGent BV13.2, suspension): 0.5 µg/mL | MBC99.5 (Gardnerella leopoldii; G. leopoldii (BV217) UGent BV217.1): 1 µg/mL | MIC (Gardnerella leopoldii; G. leopoldii (BV217) UGent BV217.1, suspension): 0.25 µg/mL | MBC99.5 (Gardnerella leopoldii; G. leopoldii (Gl11) UGent 09.48): 0.5 µg/mL | MIC (Gardnerella leopoldii; G. leopoldii (Gl11) UGent 09.48, suspension): 0.125 µg/mL | MIC90 (Gardnerella leopoldii; [16]): 0.5 µg/mL | MIC Range (Gardnerella leopoldii; [16]): 0.125 to 0.5 µg/mL | MBC99.5 (Gardnerella piotii; G. piotii (BV049) UGent BV049.1): 1 µg/mL | MIC (Gardnerella piotii; G. piotii (BV049) UGent BV049.1, suspension): 1 µg/mL | MBC99.5 (Gardnerella piotii; G. piotii (BV140) UGent BV140.2): 2 µg/mL | MIC (Gardnerella piotii; G. piotii (BV140) UGent BV140.2, suspension): 1 µg/mL | MBC99.5 (Gardnerella piotii; G. piotii (BV154) UGent BV154.1): 1 µg/mL | MIC (Gardnerella piotii; G. piotii (BV154) UGent BV154.1, suspension): 0.5 µg/mL | MBC99.5 (Gardnerella piotii; G. piotii (FB041) UGent FB041): 1 µg/mL | MIC (Gardnerella piotii; G. piotii (FB041) UGent FB041, suspension): 0.5 µg/mL | MBC99.5 (Gardnerella piotii; G. piotii (Gp17) UGent 18.01(T)): 4 µg/mL | MIC (Gardnerella piotii; G. piotii (Gp17) UGent 18.01(T), suspension): 1 µg/mL | MBC99.5 (Gardnerella piotii; G. piotii (Gp22) UGent 21.28): 2 µg/mL | MIC (Gardnerella piotii; G. piotii (Gp22) UGent 21.28, suspension): 1 µg/mL | MBC99.5 (Gardnerella piotii; G. piotii (P80275) UGent P80275): 1 µg/mL | MIC (Gardnerella piotii; G. piotii (P80275) UGent P80275, suspension): 0.5 µg/mL | MIC before passaging (Gardnerella piotii; G. piotii (UGent 18.01T), 48 h incubation): 1 µg/mL | MIC90 (Gardnerella piotii; [17]): 1 µg/mL | MIC Range (Gardnerella piotii; [17]): 0.5 to 1 µg/mL | MBEC (G. swidsinskii biofilm; [7]): <2 µg/mL | MBEC (G. swidsinskii biofilm; [8]): 32 µg/mL | MBEC (G. piotii biofilm; [9]): 8 µg/mL | MBEC (G. piotii biofilm; [10]): 2 to 8 µg/mL | MBEC, range over strains [6]: <2 to 32 µg/mL | MBEC passaged [1, 11]: 2 to 8 µg/mL | MBEC passaged [1, 12]: 2 to 4 µg/mL | MBEC passaged [1, 13]: 1 to 8 µg/mL | MBEC passaged [2, 14]: 2 µg/mL | MBEC passaged [2, 15]: 2 µg/mL | MBEC passaged [3]: <1 µg/mL | reduction of a suspension of 108 CFU/mL ([4]; MDZ-passaged G. vaginalis (ATCC 14018)): 2.8 log units | reduction of a suspension of 108 CFU/mL ([4]; ancestral G. vaginalis (ATCC 14018)): 3.0 log units

Reference: US20250144186A1, “NOVEL THERAPEUTIC USES OF GARDNERELLA ENDOLYSINS” (priority 2022, published 2025)
